Source: the supplement of paper PMC10567573

B1: ZER1 (parent)
chain: KEMARKVIEHCSNFKEENMDTSR

Variants of: B1
Assay: protein stability index of a GFP-peptide fusion (GPS, HEK-293T) (PSI 1-6); higher = more stable
Conditions: c terminus: native
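Further: lentivirally expressed fusions sorted by FACS into six bins by GFP to DsRed ratio, PSI derived from sequencing read proportions per bin multiplied by bin number.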

Protein stability index, by site and new letter:
D20: R 2.13 | M 1.91 | E 2.51 | K 2.29 | S 2.46 | L 1.87
H10: W 2.15 | K 4.78 | D 4.06 | T 3.98 | Q 3.83 | C 3.1
K1: Q 4.3 | H 4.3 | E 4.81 | V 3.26 | I 2.95 | A 3.7 | M 2.75 | S 3.87
E2: G 2.82 | R 3.57 | D 3.25 | Y 2.35 | M 3.42 | H 3.12 | L 2.76 | Q 3.53 | P 4.13 | K 3.44
E16: D 3.07 | T 3.1 | M 2.68 | R 2.98 | C 3.17 | W 2.16
E9: T 4.35 | C 4.04 | M 2.96 | Y 3.16 | S 4.26 | Q 4.08 | V 3.87 | A 4 | P 4.58
S12: G 4.21 | M 2.54 | F 2.77 | C 2.98 | P 4.37 | D 4.24 | W 2.63 | K 3.49 | T 3.59
T21: F 3.84 | Y 2.13 | D 5.16 | Q 3.84 | H 2.18 | P 4.17
F14: P 4.26 | T 4.46 | K 4.92 | Y 3.56
N18: D 3.52 | W 3.6 | Q 3.6 | E 4.22 | H 3.47 | Y 3.08
S22: R 2.38 | H 3.09 | N 4.12 | Q 3.72 | F 3.72 | I 3.72 | E 3.74
A4: T 3.94 | L 2.23 | Q 4.21 | P 4.57 | V 2.59 | R 4.15 | F 1.9 | D 4.48
R23: A 4.67 | H 5.07 | P 4.6 | S 4.84 | L 4.86 | E 5.48 | C 4.72 | W 3.91 | Q 5.31 | F 4.69
K15: S 3.34 | H 3.52 | A 3.31 | Y 3.27 | M 3.54 | F 3.17 | Q 3.57 | P 4.08 | E 4.32 | N 3.64
M3: T 4.3 | Y 3.29 | K 4.36 | W 2.28 | C 4.08 | V 4.22 | P 4.78 | S 4.64
E17: R 2.21 | C 2.68 | S 3.29 | P 2.93 | D 3.63 | I 3.15
R5: P 4.74 | V 3.14 | T 3.58 | H 3.72 | Q 3.26 | G 3.65 | L 2.74
K6: V 2.52 | N 3.89 | G 4.21 | E 4.5 | H 3.09 | A 3.58
V7: C 4.55 | M 2.44 | D 5.26 | F 3.83 | S 4.98 | W 3.19 | P 4.46 | H 1.52
M19: L 3.47 | V 3.77 | Q 3.87 | R 3.62
N13: A 3.28 | F 2.49 | E 3.69 | C 3.04 | L 1.92 | K 3.85 | R 3.11 | Q 3.07
I8: N 4.98 | A 4.58 | D 5.19 | S 3.92 | Q 4.67 | V 4.35 | M 3.51
C11: R 4.48 | I 2.02 | G 4.63 | V 2.84 | K 4.94 | Y 2.11 | S 3.96 | P 4.83
